Results from patent US20250376536A1 (Bristol-Myers Squibb, published 2025).

Legend:
cyno FAP on HEK cells = biological target: T1, cyno FAP on HEK cells (cynomolgus monkey); assay: binding to cyno FAP-positive HEK cells
T1 construct: whole, on cells; also called Cyno FAP-positive HEK cells

soluble FAP = biological target: T2, soluble FAP (human, UniProt Q12884 26-760, limits assumed); assay: cell-based or functional assay
T2 sequence: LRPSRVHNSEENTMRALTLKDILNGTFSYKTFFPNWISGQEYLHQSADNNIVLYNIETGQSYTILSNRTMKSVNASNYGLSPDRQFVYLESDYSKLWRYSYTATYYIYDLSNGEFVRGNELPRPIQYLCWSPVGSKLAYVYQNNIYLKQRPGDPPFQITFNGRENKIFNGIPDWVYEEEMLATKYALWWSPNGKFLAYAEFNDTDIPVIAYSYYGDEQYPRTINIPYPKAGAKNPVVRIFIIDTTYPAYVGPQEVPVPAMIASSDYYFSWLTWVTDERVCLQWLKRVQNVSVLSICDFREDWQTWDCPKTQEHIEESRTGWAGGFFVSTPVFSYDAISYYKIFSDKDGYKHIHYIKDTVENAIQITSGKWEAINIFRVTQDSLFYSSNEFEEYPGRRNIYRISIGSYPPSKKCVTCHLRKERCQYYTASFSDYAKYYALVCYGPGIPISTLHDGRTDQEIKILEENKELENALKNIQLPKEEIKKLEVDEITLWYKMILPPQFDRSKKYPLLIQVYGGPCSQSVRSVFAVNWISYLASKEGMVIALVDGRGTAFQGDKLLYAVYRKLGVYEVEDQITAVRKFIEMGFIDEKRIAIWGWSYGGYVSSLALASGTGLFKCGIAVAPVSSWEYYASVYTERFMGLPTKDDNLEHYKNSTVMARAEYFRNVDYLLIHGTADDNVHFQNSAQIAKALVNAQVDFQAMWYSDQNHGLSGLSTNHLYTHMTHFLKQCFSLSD

human FAP on cells = biological target: T3, human FAP on cells (human, UniProt Q12884 1-760); assay: cell-based or functional assay
T3 sequence: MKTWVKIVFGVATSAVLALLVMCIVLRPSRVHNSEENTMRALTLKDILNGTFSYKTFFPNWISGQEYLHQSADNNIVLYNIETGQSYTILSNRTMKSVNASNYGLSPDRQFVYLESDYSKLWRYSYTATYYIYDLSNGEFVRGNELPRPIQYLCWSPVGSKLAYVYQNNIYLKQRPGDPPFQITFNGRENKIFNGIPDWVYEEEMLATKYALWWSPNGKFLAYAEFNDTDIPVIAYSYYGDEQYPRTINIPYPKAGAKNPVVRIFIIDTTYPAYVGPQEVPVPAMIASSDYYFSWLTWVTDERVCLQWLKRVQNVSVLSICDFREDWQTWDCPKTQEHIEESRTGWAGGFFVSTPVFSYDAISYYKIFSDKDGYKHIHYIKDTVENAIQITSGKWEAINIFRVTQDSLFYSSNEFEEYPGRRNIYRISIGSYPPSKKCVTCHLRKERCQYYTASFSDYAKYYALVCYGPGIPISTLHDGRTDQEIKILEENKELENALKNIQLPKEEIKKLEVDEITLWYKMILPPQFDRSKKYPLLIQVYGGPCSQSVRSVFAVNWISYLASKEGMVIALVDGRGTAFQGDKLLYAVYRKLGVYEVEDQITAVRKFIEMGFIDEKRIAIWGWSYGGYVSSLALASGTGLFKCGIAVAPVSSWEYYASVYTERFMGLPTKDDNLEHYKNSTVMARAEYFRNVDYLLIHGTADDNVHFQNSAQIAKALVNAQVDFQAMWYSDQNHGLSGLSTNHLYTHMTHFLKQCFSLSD

human CD40 protein = biological target: T4, human CD40 protein (human, UniProt P25942 21-193); assay: SPR
T4 construct: Protein used in SPR
T4 sequence (P25942 21-193 limits assumed): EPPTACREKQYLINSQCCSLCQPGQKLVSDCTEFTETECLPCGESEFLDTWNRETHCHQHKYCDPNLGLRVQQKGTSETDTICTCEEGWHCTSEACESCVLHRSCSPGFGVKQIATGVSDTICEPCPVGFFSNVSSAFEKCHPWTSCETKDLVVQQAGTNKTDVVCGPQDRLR
Experimental: (§1) CD40.9H3×FAP.LP62 and an analog of RO7300490 (see SEQ ID NOs: 39-42) binding to human and cynomolgus (cyno) CD40 and FAP was evaluated by surface plasmon resonance (SPR) using human and cyno CD40 and FAP proteins. […] The rates of association and dissociation of CD40.9H3×FAP.LP62 and the analog of RO7300490 to human CD40 and FAP are summarized in Table 2.

human FAP protein = biological target: T5, human FAP protein (human, UniProt Q12884 26-760); assay: SPR
T5 sequence: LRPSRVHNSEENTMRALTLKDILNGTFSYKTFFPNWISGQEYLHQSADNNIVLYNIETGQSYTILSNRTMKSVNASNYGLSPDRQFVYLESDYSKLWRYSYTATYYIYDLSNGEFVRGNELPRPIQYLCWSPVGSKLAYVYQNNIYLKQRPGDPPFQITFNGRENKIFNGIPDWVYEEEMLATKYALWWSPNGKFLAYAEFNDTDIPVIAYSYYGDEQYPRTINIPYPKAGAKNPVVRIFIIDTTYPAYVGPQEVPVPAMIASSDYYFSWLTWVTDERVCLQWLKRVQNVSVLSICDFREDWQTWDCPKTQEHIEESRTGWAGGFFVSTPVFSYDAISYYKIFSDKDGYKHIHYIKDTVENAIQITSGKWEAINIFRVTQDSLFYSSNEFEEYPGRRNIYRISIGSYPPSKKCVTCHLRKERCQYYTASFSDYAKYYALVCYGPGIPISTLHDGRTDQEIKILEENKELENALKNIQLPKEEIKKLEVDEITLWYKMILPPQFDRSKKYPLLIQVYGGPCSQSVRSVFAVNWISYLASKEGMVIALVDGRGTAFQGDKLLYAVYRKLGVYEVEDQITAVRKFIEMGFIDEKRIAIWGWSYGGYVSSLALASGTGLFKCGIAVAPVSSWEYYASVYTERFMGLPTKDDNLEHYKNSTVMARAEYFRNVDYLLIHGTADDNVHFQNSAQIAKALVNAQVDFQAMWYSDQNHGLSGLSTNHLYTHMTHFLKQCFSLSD
Experimental: as §1

[1] = biological target: cynomolgus (cyno) CD40 protein (cynomolgus monkey, UniProt G7PG38 21-193); assay: SPR
Experimental: as §1

EC50 (cyno FAP on HEK cells): 3.6 nM
fold reduction in potency of IL12p40 secretion with 120 ng/mL soluble FAP (soluble FAP): 4.2 fold
fold reduction in potency of IL12p40 secretion with 480 ng/mL soluble FAP (soluble FAP): 7.5 fold
IL12p40 secretion, human DC + HFF1 co-culture, EC50 (human FAP on cells): 0.079 nM
TNFα release, CD40-positive macrophages + HFF1 co-culture, EC50 (human FAP on cells): 0.12 nM
Kd (human CD40 protein): 92 nM
koff (human CD40 protein): 0.0052 s⁻¹
kon (human CD40 protein): 57000 M⁻¹ s⁻¹
Kd (human FAP protein): 1.96 nM
koff (human FAP protein): 0.00147 s⁻¹
kon (human FAP protein): 750000 M⁻¹ s⁻¹
Kd [1]: 97 nM
koff [1]: 0.0052 s⁻¹
kon [1]: 53000 M⁻¹ s⁻¹
B1: CD40.9H3×FAP.LP62 bispecific antibody (bispecific antibody, human IgG1, kappa, L234A L235A)
heavy 1: EVQLVESGGGLVQPGGSLRLSCAASGFTFIGYSMNWVRQAPGKGLEWVSYISSYESTIYYADSVKGRFTISRDNAKNSLYLQMNSLRAEDTAVYYCARSRITLVRGVPRYFDLWGRGTLVTVSSASTKGPSVFPLAPSSKSTSGGTAALGCLVKDYFPEPVTVSWNSGALTSGVHTFPAVLQSSGLYSLSSVVTVPSSSLGTQTYICNVNHKPSNTKVDKKVEPKSCDKTHTCPPCPAPEAAGGPSVFLFPPKPKDTLMISRTPEVTCVVVSVSHEDPEVKFNWYVDGVEVHNAKTKPREEQYNSTYRVVSVLTVLHQDWLNGKEYKCKVSNKALPAPIEKTISKAKGQPREPQVYVLPPSREEMTKNQVSLLCLVKGFYPSDIAVEWESNGQPENNYLTWPPVLDSDGSFFLYSKLTVDKSRWQQGNVFSCSVMHEALHNHYTQKSLSLSPG
heavy 2: EVQLVESGGGLVQPGGSLRLSCAASGFTFIGYSMNWVRQAPGKGLEWVSYISSYESTIYYADSVKGRFTISRDNAKNSLYLQMNSLRAEDTAVYYCARSRITLVRGVPRYFDLWGRGTLVTVSSASTKGPSVFPLAPSSKSTSGGTAALGCLVKDYFPEPVTVSWNSGALTSGVHTFPAVLQSSGLYSLSSVVTVPSSSLGTQTYICNVNHKPSNTKVDKKVEPKSCDKTHTCPPCPAPEAAGGPSVFLFPPKPKDTLMISRTPEVTCVVVSVSHEDPEVKFNWYVDGVEVHNAKTKPREEQYNSTYRVVSVLTVLHQDWLNGKEYKCKVSNKALPAPIEKTISKAKGQPREPQVYVYPPSREEMTKNQVSLTCLVKGFYPSDIAVEWESNGQPENNYKTTPPVLDSDGSFALVSKLTVDKSRWQQGNVFSCSVMHEALHNHYTQKSLSLSPGGGSGGGGSGGGGSGGGGSEVQLLESGGGLVQPGGSLRLSCAASGFTFSSRGMSWVRQAPGKCLEWVSFISSSGTYVYYADSVKGRFTISRDNSKNTLYLQMNSLRAEDTAVYYCARDLPRTGVYFGMDVWGQGTTVTVSSGGGGSGGGGSGGGGSGGGGSDIQMTQSPSSLSASVGDRVTITCRASQSIFNYLNWYQQKPGKAPKLLIYGASTLQSGVPSRFSGSGSGTDFTLTISSLQPEDFATYYCQESYSTPYTFGCGTKVEIK
light: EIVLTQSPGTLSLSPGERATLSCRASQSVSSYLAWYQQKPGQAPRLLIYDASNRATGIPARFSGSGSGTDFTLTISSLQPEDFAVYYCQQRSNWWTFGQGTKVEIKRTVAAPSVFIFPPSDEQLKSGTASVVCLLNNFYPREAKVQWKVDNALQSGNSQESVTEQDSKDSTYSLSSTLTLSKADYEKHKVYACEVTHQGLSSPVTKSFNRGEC
notes: 2+1 format: two anti-CD40 9H3 Fabs on an IgG1 Fc with L234A, L235A, D265S and heterodimerization mutations; Ratio 1:1:2
